{"source": "paper doi:10.1101/2021.05.05.442785", "about": "(bioRxiv, 2021)", "binders": {"B1": {"name": "E. coli methionine S-adenosyltransferase (MAT), recombinant (enzyme)", "chain": "AKHLFTSESVSEGHPDKIADQISDAVLDAILEQDPKARVACETYVKTGMVLVGGEITTSAWVDIEEITRNTVREIGYVHSDMGFDANSCAVLSAIGKQSPDINQGVDRADPLEQGAGDQGLMFGYATNETDVLMPAPITYAHRLVQRQAEVRKNGTLPWLRPDAKSQVTFQYDDGKIVGIDAVVLSTQHSEEIDQKSLQEAVMEEIIKPILPAEWLTSATKFFINPTGRFVIGGPMGDCGLTGRKIIVDTYGGMARHGGGAFSGKDPSKVDRSAAYAARYVAKNIVAAGLADRCEIQVSYAIGVAEPTSIMVETFGTEKVPSEQLTLLVREFFDLRPYGLIQMLDLLHPIYKETAAYGHFGREHFPWEKTDKAQLLRDAAGLK"}}, "key": {"cryo-EM structure": {"target": "the molecule itself", "test": "cryo-EM structure"}, "[1]": {"target": "B1", "test": "cryo-EM structure"}}, "data": [{"binder": "B1", "values": [{"measurement": "stoichiometry N", "setting": "cryo-EM structure", "value": 4}]}, {"binder": "S-adenosylmethionine lyase (SAMase) of bacteriophage T3, C-terminal His-tagged (enzyme, UniProt P07693 1-152, looked up) MIFTKEPAHVFYVLVSAFRSNLCDEVNMSRHRHMVSTLRAAPGLYGSVESTDLTGCYREAISSAPTEEKTVRVRCKDKAQALNVARLACNEWEQDCVLVYKSQTHTAGLVYAKGIDGYKAERLPGSFQEVPKGAPLQGCFTIDEFGRRWQVQ", "values": [{"measurement": "binding result", "setting": "[1]", "value": "binds"}, {"measurement": "stoichiometry N", "setting": "cryo-EM structure", "value": 2}]}]}
